The nanobody polyreactivity screen of Harvey et al. (2022)

Experiment: yeast display, Sf9 membrane polyspecificity reagent, FACS + sequencing; frameworks hold sequencing errors
Procedure, shortened: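 Galactose induction of a Saccharomyces cerevisiae BJ5465 synthetic nanobody display library ran 36–48 hours. The cells were then stained for 1 hour at 4 °C with 10% biotinylated, detergent-solubilized Sf9 membrane reagent, pulled down on streptavidin microbeads and FACS-sorted into low and high (top ~1%) gates on expression and reagent-binding fluorescence. Labels for polyreactivity follow the gate of origin.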

Row | Sequence | polyreactivity (PSR sort gate)
1 | QVQLVESGGGLVQEGGSLRLSCAASGRTFRINAMGWYRQAPGKERELVAAITSIAGNTYYADSVKGRFTISRDNAKNTVYLQMNSLKPEDTAVYYCAVDSVPWGFRGAYGLTRYYYWGQGTQVTVSS | low polyreactivity
2 | QVQLVESGGGLVQEGGSLRLSCAASGSIFSGYAMGWYRQAPGKERELVAGITWSGGSTYYADSVKGRFTISRDNAKNTVYLQMNSLKPEDTSVYYCAAKYYWYYSYSGIPLFDYWGQGTQVTVSS | low polyreactivity
3 | QVQLVESGGGLVQEGGSLRLSCAASGSIFYRYTMGWYRPAPGKERELVAAISSRGGSTYYADSVKGRFTISRDNAKNTVYLQMNCLKPEDTAVYYCAARYYRNPVFVIMDYWGQGTQVTVSS | high polyreactivity
4 | QVQLVESGGGLVQEGGSLRLSCAASGSIVTLYAMGWSRQAPGKERELVAAITWYGGSTYYADSVKGRFTISRDNAKNTVYLQMNSLKPEDTAVYYCAKDYLAGGPCEGHVEREYDYWGQGTQVTVSS | low polyreactivity
5 | QVQLVESGGGLVQEGGSLRLSCAASGSTFHSYAMGWYRQAPGKERELVAGINRTGGSTYYADSVKGRFTISRDNAKNTVYLQMNSLKPEDTAVYYCAAVSYYASDYRYDYWGQGTQVTVSS | low polyreactivity
6 | QVQLVESGGGLVQEGGSLRLSCAASGSTFRRYAMGWYRQAPGKERELVASISRSGGSTYYADSVKGRFTISRDNAKNTVYLQMNSLKSEDTAVYYCSKKPYKSAYDYSTAYDYWGQGTLVTVSS | high polyreactivity
7 | QVQLVESGGGLVQEGGSLRLSCAASGSTFRTYAMGWYRQAPGKERELVAAISGDTSTNYADSVKGRFTISRDNAKNTVYLQMNSLKPEDTAVYYCAAYWTTYATLWYDYWGQGTQVTVSS | low polyreactivity
8 | QVQLVESGGGLVQEGGSLRLSCAASGTIFGIYAMGWYRKAPGKERELVAAISKSGGGTYYADSVKGRFTISRDNSKNTVFLQMNSLKPEDTAVNYCNVYVSKYRRFEYWGQGTQVTVSS | high polyreactivity
9 | QVQLVESGGGLVQEGGSLRLSCAASVFIIDYYAMGWYRQAPGKERELVASISYNSVSTTYADSVKGRFTISRDNAKNTVYLQMNSLKPEDTAVYYCAATSWYWAYTYYYWGQGTQVTVSS | low polyreactivity
10 | QVQLVESGGGLVQEGGSLRLSCAATGSIFSSYAMGWYRQAPGKERELVASINSAGSTNYADSVKGRFTISRDNAKITVYLQMNSLKPEDTAVYYCARGGAVVYLDYWGQGTQVTVSS | low polyreactivity
11 | QVQLVESGGGLVQEGGSLRLSCADSGFIFRRYAMGWYIQAPGKERELVAAIRSDGSTNYADSVKGRFTISRDNAKNTVYLQMNSLKPEDTAVYYCAATYYSYTWFSQYYYWGQGTQVTVSS | high polyreactivity
12 | QVQLVESGGGLVQEGGSLRLSCADSGSTFASYAMGWNRQAPGKERELVAAITDSGGSTYYADSVKGRFTISRDNAKNTVYLQMNSLKPEVTAVYDCAAEDQESNAAGGYWGQGTQVTVSS | low polyreactivity
13 | QVQLVESGGGLVQEGGSLRLTCAASGSTFSDYAMGWYRQAPGKERELVAAISKRGGRTYYADSVKGRFTISRDNEKNTVYLQMNSLKPEDTAVYDCAADLPNAKWYGYDYWGQGTQVTVSS | high polyreactivity
14 | QVQLVESGGGLVQEGGSLRVSCAASGIIFSSYVMGWYRQAPGKERELVAAISKSGARTSYADSVKGRFTISRDNAKNTVYLQMNSLKPEDTAVYYCAATFRLERPTSKHPRYDYWGQGTQVTVST | low polyreactivity
15 | QVQLVESGGGLVQEGGSLSLSCAASGSTFTVYNMGWYRKAPGEERELVAANSRRGDSTYYADSVKGRFTISRDNAKNTVYSQMHSLKPEETAVYYSNARSAYGTGNQRGRRYYWGQGTEVTVSS | high polyreactivity
16 | QVQLVESGGGLVQERVSLRLSCAASGFIFLFNAMGWNRQAPGKERELVAAISDDGSTYYADSLKGRFTISRDNAKNTVYLQMTSLKTEDTAVYYCAAEYYYDRYTLDYWGQGTQVTVSS | high polyreactivity
17 | QVQLVESGGGLVQGGGSLRIICAASGFTFTDYAMGWYRQAPGKERELVAAIDGSGGRTYYAYSVKGRFTISRDNAKNTFYLQMNSLKPEHTAVYYCAAGLYSRLYWYRLDYWGQGTQVTVSS | low polyreactivity
18 | QVQLVESGGGLVQGGGSLRLRCAASGFNFDWYTMGWYRQAPGKERELVAAITIGGSTDYADSVKGRFTISRDNAKNTVYLQMNSLKREDTAVYYCNALWYLSGTWYDYWGQGTQVTVSS | low polyreactivity
19 | QVQLVESGGGLVQGGGSLRLSCAASGFTFYYNAMGSYRQAPGKERELVADITSGGDTYYADSVKGRFTISRDNAKNTVYLQRNSLKPEDTAVYYCAAELWGLFDYWGQGTEVTVSS | low polyreactivity
20 | QVQLVESGGGLVQGGGSLRLSCAASGRIFDRYAMGWYRQAPGKERELVAAISSSGGSTYYADSVKGRFTISRDNAKNTVYLQMNSLKPEDTPVYYCNADYYVSKLDYWGQGTQVTVSS | high polyreactivity

Row | Sequence | polyreactivity (PSR sort gate)
21 | QVQLVESGGGLVQGGGSLRLSCAASGRIFDYYTMGWYRPAPGKERELVAAISSGGSTNYADYVKGRFTISRDNAKNTVYLQMNSLKPEDTAVYYCNVDLTTVGHWYYYRPGYDYWEQGTQVTVSS | low polyreactivity
22 | QVQLVESGGGLVQGGGSLRLSCAASGRNWSRYAMGWYRQAPGKERELVADITYSGGNTYYADSVKGRFTISRDNAKNTVYLQMNSLKPEDTAVYYCSTGWSWWTFDYWGQGTQVTVSS | high polyreactivity
23 | QVQLVESGGGLVQGGGSLRLSCDASGFIFPAYARGWYRQAPGKEREWVAAISKSGGRTYYADSVKGRFTISRDNAKNPVYLQMNRLKPEDTAVNYCPARLYNYDTSSSFDYWGQGTQVNVSS | high polyreactivity
24 | QVQLVESGGGLVQGGGSLRLSFAASGSIFWRNAMGWYRQAPGKERELVAAITSGGSTYYADSVKGRFTISRDNAKNTVYLQMNSLKPEDTAVYYCAAGGRWARWLFPSRYDYWGQGTQVTVSS | low polyreactivity
25 | QVQLVESGGGLVQGGGSLSLSCAASGITFLNYAMGWYRQAPGKERELVAAITWRGGRTYYADSVKGRFTISRDNEKNTVYLQMNSLKPEDTAVYYCARRPGYALTWRVSGRYDYWGQGTQVTVSS | high polyreactivity
26 | QVQLVESGGGLVQGGSLRLSCAATGFTFPIYVMAWYRQAPGKERQLVDSISSVGSTNYADSVKGRFTISRDNAKNTVYLQMNSMKPEDTAVYYCNADAPNSYGGFDYWGQGTQVTVSS | low polyreactivity
27 | QVQLVESGGGLVQGVGTLRLSCAASGITFVYYAMGWSRHAPVKERELFAAISSGGSSTYYADSVKGRFTMSRDTAKNTVYLQMHSQKPEDTAVYYCAATNYFPRLQWMDYWGQGTQVTVSS | low polyreactivity
28 | QVQLVESGGGLVQPGCSLRLSCAASGSIFYAYDMGWYRQSPGKERQLVAAISWSGGTTYYADSVKGRFTISRDNAKNTVYLQMNSLIPEDTAVYYCAAREYYTDVHGTRRYDYWGQGTQVTVSS | low polyreactivity
29 | QVQLVESGGGLVQPGGSLRLSCAASGFIFTLYAMGWYRQAPGKEREFFAAISWSDGSTTYADSVKGRFTISRDNAKNTVYLQMNSLKREDTAVYYCAAVTSSYIRGLVYHFYYWGQGTLVTVSS | low polyreactivity
30 | QVQLVESGGGLVQPGGSLRLSCAASGFIYSYYAMGLYRPAPGKERELVAVITRSVGSTYYADSVKGRFTISRDNAKNTVYLQMNSLKPEYTAVYYCAAGYFYHFSRYTNRYGYWGQGTQVTVSS | high polyreactivity
31 | QVQLVESGGGLVQPGGSLRLSCAASGRIFGRYAMGWYRQAPGKERELVAAISRGGTTNYADSVKGRFTISRDNAKNTVYLQMNSLKPEDTAVYYCAKSGPKRGQYDYWGQGTLVTVSS | high polyreactivity
32 | QVQLVESGGGLVQPGGSLRLSCAASGSIFGSYDMGWYRQAPGKERELVAAITYSVGTTYYADSVKGRFTISRDNAKNTVYLQMNSLKPEDNAVYYCAADFAPVGLPSPFAVSEGEDDYWGQGTQVTVSS | low polyreactivity
33 | QVQLVESGGGLVQPGGSLRLSCAASGSIFYRNAMGWYRQAPGKERELVAAITWSGVNTYYADSVKGRFTISRDNAKNTVYLQMNSLKPEDTAVYYCAVPSRYWLNRGFDYWGQGTQVTVSS | low polyreactivity
34 | QVQLVESGGGLVQPGGSLRLSCAAYGLTFYGYTMGWYRQAPGKERELVASITRSGGSTYADSVKGRFTISRDNAKNTVYLQMNSLKPEDTAVFYCAAVYRARGYYYWGQGTQVTVSS | high polyreactivity
35 | QVQLVESGGGLVQQGGILRLSCASSGSNFILNEMGWSRQAPRKDRELVATISSSDTSTYYADSVKGRFTISRDNAKNTVYVQMNSLKPEDTAVYYCNADYYTTSYLQRVYHYGVEYDYWGQGTQVTVSS | low polyreactivity
36 | QVQLVESGGGLVQSGGSLRLICAASGRIFPYYAMGWYRQAPGKERELVATIRGRVGTTYYADSVKGRFTISRDNAKNTVYLQMTSLKPEDTAVYYCAKREYSRYTRVFGYGSWGQCTQVTVSS | high polyreactivity
37 | QVQLVESGGGLVQSGGSLRLICAASGSTFGRYPMGWYRQAPGKERELVARISSGGSTTYADSVKGRFTISRDNAKNTVYFLRNSLKTEETAVYYSAADTPYWRYDYWGQGTQVTVSS | high polyreactivity
38 | QVQLVESGGGLVQSGGSLRLSCAASGGTFRYNAMGRYRQAPGKERELVAAITSVGITNYADSVKGRFTISRDNAKNTVYLQMNSLNPEDTAVYYCAKRYYRYGARSWYYPYDYWGQGTQVTVSS | high polyreactivity
39 | QVQLVESGGGLVQSGGSLRLSCAASGITLYWYAMGWYRQAPGKERELVAAITFNGGSTYADSVKGRFTISRDNAKNTVYLQMNSLKPEDTAVYYFASGDGPSLFDYWGQGTQVTVSS | low polyreactivity
40 | QVQLVESGGGLVQSGGSLRLSCAASGRIFDWNVMGSYRQAPGKERELVSVINDSTGTTYYADSVKGRFTISRDNAKNTVYLQMNSLKPEDTAVYYCAAYVWISSEEFYYWGQGTQVTVSS | low polyreactivity
